Reference: patent publication US20210040189A1 (Amgen, published 2021)

T1: huDkk4 (human, UniProt Q9UBT3 19-224, limits assumed)
T1 sequence (looked up): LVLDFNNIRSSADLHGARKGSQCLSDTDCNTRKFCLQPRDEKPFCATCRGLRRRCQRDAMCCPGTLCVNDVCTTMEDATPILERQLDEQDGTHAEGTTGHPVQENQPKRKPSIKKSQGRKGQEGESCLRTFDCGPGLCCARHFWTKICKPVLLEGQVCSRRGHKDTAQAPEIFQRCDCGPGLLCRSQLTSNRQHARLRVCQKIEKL

T2: CNBr1 (human, UniProt O94907 207-266)
T2 construct: Two peptides held together by 5 disulfide bonds; also called CNBr fragment of hDKK1 representing disulfide domain D2; not shown: added C-terminal flag peptide (positions 267-274)
T2 sequence 1: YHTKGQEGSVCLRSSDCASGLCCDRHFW
T2 sequence 2: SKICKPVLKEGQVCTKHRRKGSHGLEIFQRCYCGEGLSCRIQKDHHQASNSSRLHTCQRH

T3: T2 (human)
T3 construct: Five peptides held together by the five disulfide bonds of D1; from trypsin digestion of HuDKK1 alone; also called tryptic D1 fragment T2
T3 chain 1: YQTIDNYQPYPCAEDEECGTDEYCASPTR
T3 chain 2: GGDAGVQICLACR
T3 chain 3: CMR
T3 chain 4: HAMCCPGNYCK
T3 chain 5: NGICVSSDQNHFR

T4: T3 (human)
T4 construct: a separate HPLC peak; also called tryptic D1 fragment T3
T4 chain 1: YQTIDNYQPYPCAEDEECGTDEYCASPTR
T4 chain 2: GGDAGVQICLACR
T4 chain 3: CMR
T4 chain 4: HAMCCPGNYCK
T4 chain 5: NGICVSSDQNHFR

T5: AspN1 (human)
T5 construct: Two peptides held together by five disulfide bonds in D1
T5 chain 1: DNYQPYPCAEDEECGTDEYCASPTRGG
T5 chain 2: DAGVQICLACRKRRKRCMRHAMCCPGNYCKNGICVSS

T6: AspN2 (human)
T6 construct: a separate HPLC peak
T6 chain 1: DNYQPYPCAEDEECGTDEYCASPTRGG
T6 chain 2: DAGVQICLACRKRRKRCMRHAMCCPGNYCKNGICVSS

T7: human DKK1 (human, UniProt O94907 32-266)
T7 construct: also called huDKK1; hDKK1
T7 sequence: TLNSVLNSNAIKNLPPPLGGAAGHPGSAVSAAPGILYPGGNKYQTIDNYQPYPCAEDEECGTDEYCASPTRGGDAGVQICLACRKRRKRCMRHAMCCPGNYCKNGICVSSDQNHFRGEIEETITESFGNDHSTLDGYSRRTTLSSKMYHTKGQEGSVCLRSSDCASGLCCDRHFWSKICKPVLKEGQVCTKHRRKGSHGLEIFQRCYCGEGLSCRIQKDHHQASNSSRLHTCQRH

T8: T4 (human)
T8 construct: also called tryptic D1 peptide T4
T8 chain: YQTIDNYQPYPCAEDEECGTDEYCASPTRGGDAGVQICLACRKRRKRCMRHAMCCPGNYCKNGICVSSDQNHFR

T9: mouse DKK1 (mouse, UniProt O54908 32-272)
T9 construct: also called murine DKK1
T9 sequence: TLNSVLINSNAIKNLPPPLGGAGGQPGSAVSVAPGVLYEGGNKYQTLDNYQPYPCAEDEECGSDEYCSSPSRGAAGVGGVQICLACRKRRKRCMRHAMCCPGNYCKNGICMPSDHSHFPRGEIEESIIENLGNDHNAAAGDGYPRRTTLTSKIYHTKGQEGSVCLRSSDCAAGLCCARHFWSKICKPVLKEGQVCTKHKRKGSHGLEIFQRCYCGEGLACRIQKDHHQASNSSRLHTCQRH

T10: cynomologous DKK1 (cynomolgus monkey, UniProt O94907 32-266 (human entry), limits assumed)
T10 construct: also called cyno DKK1
T10 chain: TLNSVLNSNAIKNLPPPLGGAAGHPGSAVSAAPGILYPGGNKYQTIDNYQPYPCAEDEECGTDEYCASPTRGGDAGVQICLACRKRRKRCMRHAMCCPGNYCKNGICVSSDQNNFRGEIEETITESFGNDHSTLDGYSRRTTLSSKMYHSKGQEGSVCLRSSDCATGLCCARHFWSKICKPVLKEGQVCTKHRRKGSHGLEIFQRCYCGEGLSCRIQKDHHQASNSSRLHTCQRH


Tests used:
huDkk4 = target: T1, huDkk4; experiment: BiaCore
CNBr1 = target: T2, CNBr1; experiment: BiaCore
T2 = target: T3, T2; experiment: BiaCore
T3 = target: T4, T3; experiment: BiaCore
AspN1 = target: T5, AspN1; experiment: BiaCore
AspN2 = target: T6, AspN2; experiment: BiaCore
human DKK1 [1] = target: T7, human DKK1; experiment: BiaCore 2000
Description: BiaCore allowed us to determine the kd of the selected antibodies.

human DKK1 [2] = target: T7, human DKK1; experiment: cell-based or functional assay
T4 = target: T8, T4; experiment: BiaCore, competition with surface-bound DKK1
human DKK1 [3] = target: T7, human DKK1; experiment: KinExA 3000 equilibrium binding in solution
Description: (§1) Accordingly, the affinity of several of these antibodies to DKK1 was further assessed by an equilibrium binding analysis using the more sensitive KinExAtm 3000. For these measurements, Reacti-Gel 6× beads (Pierce, Rockford, Ill.) were pre-coated with human, cynomologous or mouse DKK1 and blocked with BSA. One hundred pM, 300 pM, or 1000 pM of the antibody was mixed with various concentrations of human, mouse or cyno DKK1, ranging in concentration from 1 pM to 50 nM, and equilibrated at room temperature for 8 hours. The mixtures were then passed over the DKK1-coated beads. The amount of bead-bound anti-DKK1 antibody was quantified using goat anti-human-IgG antibody labeled with a fluorescent tag (Cy5; Jackson Immuno Research, West Grove, Pa.). The amount of fluorescent signal measured was proportional to the concentration of free anti-DKK1 antibody in each reaction mixture at equilibrium. The dissociation equilibrium constant (Kd) was obtained from nonlinear regression of the competition curves using a dual-curve one-site homogeneous binding model using the KinExA software.

mouse DKK1 = target: T9, mouse DKK1; experiment: KinExA 3000 equilibrium binding in solution
Description: as §1

cynomologous DKK1 = target: T10, cynomologous DKK1; experiment: KinExA 3000 equilibrium binding in solution
Description: as §1

Row | Binder | binding result (huDkk4) | binding result (CNBr1) | binding result (T2) | binding result (T3) | binding result (AspN1) | binding result (AspN2) | koff (human DKK1 [1]) [s⁻¹] | ST2 EC50 (human DKK1 [2]) [nM] | TCF EC50 (human DKK1 [2]) [nM] | binding result (T4) | Kd (human DKK1 [3]) [nM] | Kd (mouse DKK1) [nM] | Kd (cynomologous DKK1) [nM]
1 | 5.25.1 (antibody, V domains shown, Fully human hybridoma IgG, kappa (Vk)) VH: QVQLVQSGAEVKKPGASVKVSCKASGYTFTSYDINWVRQATGQGLEWMGWMDPNSGNTGYAQKFQGRVTMTRNTSISTAFMELSSLRSEDTAVYYCARTDYFYFGMDVWGQGTTVTVSS VL: DIQMTQSPSSLSASVGDRVTITCQASQDISKDLNWYQQKPGKAPRLLIYDASNLETGVPSRFSGSGSGTDFTFTISSLQPEDIATFYCQQYDHLPIAFGQGTRLEIK | no binding | no binding | no binding | no binding | binds | binds | < 2e-05 | 5.96 | 1.88 | binds | 0.003 | 0.15 | –
2 | 5.32.1 (antibody, V domains shown, Fully human hybridoma IgG, kappa (Vk)) VH: QVQLVQSGAEVKKPGASVKVSCKASGFTFTSYDISWVRQATGLGLEWMGWMNPSSGYTGYAQNFQGRVTMTWNTSISTVYMELSSLRSEDTAVYYCARTDYYYYGMDVWGRGTTVTVSS VL: DIQMTQSPSSLSASVGDRVTITCQASQDISKDLNWYQQKPGKAPKLLIYDASNLETGVPSRFSGSGSGTDFTFTISSLQPEDIATYYCQQYDDLPITFGQGTRLEIK | no binding | – | – | – | – | – | 0.000191 | 3.48 | 1.01 | – | 0.003 | 0.04 | –
3 | 6.116.6 (antibody, V domains shown, Fully human IgG, kappa (Vk)) VH: QVQLVESGGGVVQPGRSLRLSCAASGFTFSGYGMHWVRQAPGKGLEWVAVISYDGNDKYYADSVKGRFTISRDNAKNTLYLQMNSLRAEDTAVYYCARELRVLWGQGTLVTVSS VL: DIVMTQTPLSLSVTPGQPASISCKSGQSLLHNDGKTYLYWYLQKPGQPPQFLIYEVSNRFSRVPDRFSGSGSGTDFTLKISRVEAEDVGIYYCMQSIQLPWTFGQGTQVEIK | – | – | – | – | – | – | 2e-05 | 2.77 | 4.69 | – | 0.025 | 0.04 | 0.04
4 | 6.37.5 (antibody, V domains shown, Fully human IgG, kappa (Vk)) VH: QVQLVESGGGVVQPGRSLRLSCAASGFTFSGYGMHWVRQAPGKGLEWVAVISYDGNDKYYADSVKGRFTISRDNAKNTLYLQMNSLRAEDTAVYYCARELRVLWGQGTLVTVSS VL: DIVMTQTPLSLSVTPGQPASISCKSGQSLLHSDGKTYLYWYLQKPGQPPQFLIYEVSNRFSRVPDRFSGSGSGTDFTLRISRVEAEDVGIYYCMQSIQLPWTFGQGTQVEIK | – | – | – | – | – | – | 4e-05 | 3.98 | 6.57 | – | 0.03 | 0.05 | 0.035
5 | 2.40.1 (antibody, V domains shown, Fully human hybridoma IgG, kappa (Vk)) VH: QVQLVESGGGVVQPGRSLRLSCAASGFTFSSYGMHWVRQAPGKGLGWVAVISYDGSDKYYADSVKGRFTISRDNSKNTLYLQMNSLRAEDTAVYYCARDLVDTAMPWGQGTTVTVSS VL: DIVMTQSPLSLSVTPGQPASISCKSSQSLLHSDGKTYLYWYLQKPGQPPQLLIYEVSNRFSGVPDRFSGSGSGTDFTLKISRVEAEDVGVYYCMQSIQVPWTFGQGTKVEIK | – | – | – | – | – | – | 6.27e-05 | 2.47 | 1.28 | – | 0.22 | 0.48 | 0.22
